Source: patent publication US20170190751A1 (published 2017)
Where a chain is given by its changes, count along the chain named.

B1: I1 NGAL mutant (ligand)
chain: QDSTSDLIPAPPLSSVPLQQNFQDNQFQGKWYVVGLAGNAILREDKDPQKMYATIYELKEDKSYNVTSVLFRDDGCDYWIRTFVPGCQPGEFTLGNIKSYPGLTSYLVRVVSTNYNQHAMVFFKKVSQNQEYFKITLYGRTKELTSELKENFIRFSKSLGLPENHIVFPVPIDQCIDG
B2: C3 NGAL mutant (ligand)
chain: B1 chain with K50T, R72Q, D73K, D74K, G75K, Q130R, K149Q, K157Q
B3: B4 NGAL mutant (ligand)
chain: B1 chain with S15K, K46E, D73K, D74K, G75K, K98Q, Q130R
B4: A2 NGAL mutant (ligand)
chain: B1 chain with D73K, D74K, G75K, Q130R, R140Q, K142Q
B5: K1 NGAL mutant (ligand)
chain: B1 chain with K46E, K59Q, D73K, D74K, G75K, K98Q, H118F, K149Q, H165N
B6: D1 NGAL mutant (ligand)
chain: B1 chain with S15K, Q130R
B7: G3 NGAL mutant (ligand)
chain: B1 chain with S15K, D73K, D74K, G75K, Q130R, K157Q
B8: K2 NGAL mutant (ligand)
chain: B1 chain with K98Q, H118F, K149Q, H165N
B9: F2 NGAL mutant (ligand)
chain: B1 chain with S15K, K46E, K59Q, D73K, D74K, G75K, Q130R
B10: K5 NGAL mutant (ligand)
chain: B1 chain with K46E, D73K, D74K, G75K, K98Q, H118F, K149Q, H165N
B11: I3 NGAL mutant (ligand)
chain: B1 chain with S15K, K62G, K98Q, Q130R
B12: K3 NGAL mutant protein (ligand)
chain: B1 chain with K46E, K98Q, H118F, K149Q, H165N
B13: H2 NGAL mutant (ligand)
chain: B1 chain with D73K, D74K, G75K, K98Q, H118F, K149Q, H165N
B14: I5 NGAL mutant (ligand)
chain: B1 chain with K62G

biological target: mouse megalin (mouse, UniProt A2ARV4 26-4660); experiment: cell-based or functional assay
Sequence (A2ARV4 26-4660 limits assumed): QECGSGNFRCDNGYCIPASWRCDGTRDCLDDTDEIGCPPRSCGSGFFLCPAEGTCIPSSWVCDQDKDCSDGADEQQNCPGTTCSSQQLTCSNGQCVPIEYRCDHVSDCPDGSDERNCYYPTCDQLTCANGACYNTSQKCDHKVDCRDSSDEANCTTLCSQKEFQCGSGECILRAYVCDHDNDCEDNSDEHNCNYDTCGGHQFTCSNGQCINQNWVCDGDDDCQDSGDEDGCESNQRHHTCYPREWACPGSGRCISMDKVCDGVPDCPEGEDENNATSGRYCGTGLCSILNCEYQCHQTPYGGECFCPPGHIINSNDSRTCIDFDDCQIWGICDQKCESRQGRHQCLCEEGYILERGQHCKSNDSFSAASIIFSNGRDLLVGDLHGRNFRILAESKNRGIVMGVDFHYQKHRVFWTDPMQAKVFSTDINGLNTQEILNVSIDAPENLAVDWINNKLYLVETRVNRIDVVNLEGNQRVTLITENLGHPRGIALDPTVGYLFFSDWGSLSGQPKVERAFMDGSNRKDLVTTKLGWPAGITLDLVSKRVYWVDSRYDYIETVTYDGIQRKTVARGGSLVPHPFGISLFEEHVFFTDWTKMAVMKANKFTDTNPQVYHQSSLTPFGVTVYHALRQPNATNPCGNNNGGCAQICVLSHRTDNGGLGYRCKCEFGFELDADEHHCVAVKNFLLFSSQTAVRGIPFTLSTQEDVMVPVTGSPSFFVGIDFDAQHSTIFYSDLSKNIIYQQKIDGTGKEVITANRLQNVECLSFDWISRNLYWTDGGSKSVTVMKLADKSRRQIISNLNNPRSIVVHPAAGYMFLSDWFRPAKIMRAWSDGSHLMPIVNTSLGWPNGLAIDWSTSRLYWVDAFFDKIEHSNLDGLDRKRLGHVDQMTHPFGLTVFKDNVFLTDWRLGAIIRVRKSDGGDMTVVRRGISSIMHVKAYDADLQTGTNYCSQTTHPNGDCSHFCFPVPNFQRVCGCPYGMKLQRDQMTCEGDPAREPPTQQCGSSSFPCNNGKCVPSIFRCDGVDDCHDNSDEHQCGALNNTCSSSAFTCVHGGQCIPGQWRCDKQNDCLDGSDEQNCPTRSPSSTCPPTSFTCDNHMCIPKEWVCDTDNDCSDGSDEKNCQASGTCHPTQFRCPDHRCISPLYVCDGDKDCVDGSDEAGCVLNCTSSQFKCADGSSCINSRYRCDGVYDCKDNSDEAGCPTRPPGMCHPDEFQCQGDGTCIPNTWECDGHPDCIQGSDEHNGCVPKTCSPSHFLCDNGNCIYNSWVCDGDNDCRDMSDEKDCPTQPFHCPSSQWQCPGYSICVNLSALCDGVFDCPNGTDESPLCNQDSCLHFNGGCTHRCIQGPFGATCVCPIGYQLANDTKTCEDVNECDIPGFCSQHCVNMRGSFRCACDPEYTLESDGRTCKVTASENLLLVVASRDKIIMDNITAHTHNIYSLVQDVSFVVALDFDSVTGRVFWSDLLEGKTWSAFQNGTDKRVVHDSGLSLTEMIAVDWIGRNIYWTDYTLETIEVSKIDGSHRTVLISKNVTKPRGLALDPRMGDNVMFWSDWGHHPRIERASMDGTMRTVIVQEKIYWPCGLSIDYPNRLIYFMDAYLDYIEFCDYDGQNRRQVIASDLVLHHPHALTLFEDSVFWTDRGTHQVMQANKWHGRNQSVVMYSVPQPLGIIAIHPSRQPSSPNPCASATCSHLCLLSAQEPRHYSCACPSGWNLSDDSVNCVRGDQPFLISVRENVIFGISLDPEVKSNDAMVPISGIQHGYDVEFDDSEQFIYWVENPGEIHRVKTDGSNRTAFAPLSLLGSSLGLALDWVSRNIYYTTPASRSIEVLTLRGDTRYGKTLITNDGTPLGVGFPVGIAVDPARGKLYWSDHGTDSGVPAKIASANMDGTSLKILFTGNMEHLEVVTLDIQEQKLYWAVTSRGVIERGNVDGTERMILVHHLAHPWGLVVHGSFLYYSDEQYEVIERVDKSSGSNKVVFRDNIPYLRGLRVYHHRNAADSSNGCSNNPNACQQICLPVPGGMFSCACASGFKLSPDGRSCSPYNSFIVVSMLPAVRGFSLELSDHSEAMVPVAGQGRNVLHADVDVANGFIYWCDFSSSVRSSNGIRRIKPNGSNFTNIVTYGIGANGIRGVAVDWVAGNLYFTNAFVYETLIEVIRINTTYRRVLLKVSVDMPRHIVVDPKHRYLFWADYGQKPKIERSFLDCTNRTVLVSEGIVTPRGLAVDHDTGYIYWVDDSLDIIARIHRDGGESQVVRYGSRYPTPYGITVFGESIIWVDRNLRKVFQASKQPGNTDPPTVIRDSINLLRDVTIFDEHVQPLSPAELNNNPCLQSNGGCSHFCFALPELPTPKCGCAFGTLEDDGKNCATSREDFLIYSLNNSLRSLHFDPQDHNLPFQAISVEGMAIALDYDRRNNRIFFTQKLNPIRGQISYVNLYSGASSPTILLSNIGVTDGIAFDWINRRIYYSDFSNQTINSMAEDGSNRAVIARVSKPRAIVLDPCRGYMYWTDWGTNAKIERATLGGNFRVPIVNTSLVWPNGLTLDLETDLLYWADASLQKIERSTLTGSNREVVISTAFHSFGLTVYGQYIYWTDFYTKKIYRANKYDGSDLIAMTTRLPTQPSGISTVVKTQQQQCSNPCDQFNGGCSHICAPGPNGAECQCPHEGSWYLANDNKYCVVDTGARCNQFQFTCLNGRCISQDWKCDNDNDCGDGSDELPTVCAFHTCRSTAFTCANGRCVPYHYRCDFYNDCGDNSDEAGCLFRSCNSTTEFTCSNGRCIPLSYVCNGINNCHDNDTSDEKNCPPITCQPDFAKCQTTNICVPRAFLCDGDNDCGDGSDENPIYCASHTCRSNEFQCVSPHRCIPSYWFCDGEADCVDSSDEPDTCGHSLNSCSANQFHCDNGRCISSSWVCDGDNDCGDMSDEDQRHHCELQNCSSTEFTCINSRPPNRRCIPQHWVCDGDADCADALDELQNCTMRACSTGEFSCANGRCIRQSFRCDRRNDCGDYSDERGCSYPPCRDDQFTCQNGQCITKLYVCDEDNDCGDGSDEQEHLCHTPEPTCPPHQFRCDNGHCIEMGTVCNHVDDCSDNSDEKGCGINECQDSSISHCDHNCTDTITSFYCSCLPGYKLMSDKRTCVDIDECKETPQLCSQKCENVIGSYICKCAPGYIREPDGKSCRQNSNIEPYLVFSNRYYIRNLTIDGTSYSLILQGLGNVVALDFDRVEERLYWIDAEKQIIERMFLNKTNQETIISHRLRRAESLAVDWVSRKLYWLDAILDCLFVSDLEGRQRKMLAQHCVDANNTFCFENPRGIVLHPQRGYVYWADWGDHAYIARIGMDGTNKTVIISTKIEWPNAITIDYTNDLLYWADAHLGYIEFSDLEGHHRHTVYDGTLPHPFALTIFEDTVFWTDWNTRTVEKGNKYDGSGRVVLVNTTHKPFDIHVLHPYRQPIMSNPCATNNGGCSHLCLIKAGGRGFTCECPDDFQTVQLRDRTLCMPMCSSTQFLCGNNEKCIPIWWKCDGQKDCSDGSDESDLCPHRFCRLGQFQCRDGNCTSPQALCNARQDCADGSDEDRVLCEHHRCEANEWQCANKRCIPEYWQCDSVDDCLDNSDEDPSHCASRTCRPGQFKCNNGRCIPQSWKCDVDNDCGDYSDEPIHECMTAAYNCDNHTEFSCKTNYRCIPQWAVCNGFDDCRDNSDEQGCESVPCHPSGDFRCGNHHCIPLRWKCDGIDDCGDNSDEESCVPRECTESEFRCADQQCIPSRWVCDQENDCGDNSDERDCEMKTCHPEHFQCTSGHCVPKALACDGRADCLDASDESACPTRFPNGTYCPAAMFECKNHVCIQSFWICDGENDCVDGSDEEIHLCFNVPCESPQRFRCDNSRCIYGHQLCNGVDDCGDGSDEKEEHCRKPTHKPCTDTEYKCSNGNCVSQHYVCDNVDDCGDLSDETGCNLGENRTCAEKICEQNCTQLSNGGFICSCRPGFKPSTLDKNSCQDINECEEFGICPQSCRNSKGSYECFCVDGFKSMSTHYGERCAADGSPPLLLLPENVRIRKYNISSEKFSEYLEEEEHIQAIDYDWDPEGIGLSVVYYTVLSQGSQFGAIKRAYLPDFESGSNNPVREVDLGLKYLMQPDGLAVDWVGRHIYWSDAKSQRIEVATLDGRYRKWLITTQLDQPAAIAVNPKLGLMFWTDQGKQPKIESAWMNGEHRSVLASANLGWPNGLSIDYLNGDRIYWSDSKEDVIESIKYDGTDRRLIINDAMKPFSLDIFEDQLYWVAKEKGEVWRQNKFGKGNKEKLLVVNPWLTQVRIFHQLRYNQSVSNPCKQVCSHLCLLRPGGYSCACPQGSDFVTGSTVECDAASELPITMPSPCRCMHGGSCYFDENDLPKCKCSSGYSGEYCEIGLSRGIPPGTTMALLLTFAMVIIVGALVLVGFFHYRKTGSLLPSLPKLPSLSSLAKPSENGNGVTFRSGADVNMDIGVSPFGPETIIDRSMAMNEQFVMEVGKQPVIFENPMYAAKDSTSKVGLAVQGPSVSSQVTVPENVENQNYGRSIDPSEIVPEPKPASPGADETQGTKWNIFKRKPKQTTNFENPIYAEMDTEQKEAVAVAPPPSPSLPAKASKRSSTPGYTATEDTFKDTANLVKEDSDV

Going from B1 to B2, the “% of i.p. injected NGAL-enterochelin-55Fe3+ complex delivered to mouse urine after 3 hours (escape from renal reabsorption)” value falls from 6% to 0.26%.

Compared with B3, B4 is higher in “% of i.p. injected NGAL-enterochelin-55Fe3+ complex delivered to mouse urine after 3 hours (escape from renal reabsorption)” value: 0.13% for the first, 0.18% for the second.

Going from B5 to B6, the “% of i.p. injected NGAL-enterochelin-55Fe3+ complex delivered to mouse urine after 3 hours (escape from renal reabsorption)” value falls from 1.9% to 0.1%.

First: B7
Second: B8
The “% of i.p. injected NGAL-enterochelin-55Fe3+ complex delivered to mouse urine after 3 hours (escape from renal reabsorption)” value of the first is lower: 0.17% for the first, 9.3% for the second.

First: B9
Second: B10
The “% of i.p. injected NGAL-enterochelin-55Fe3+ complex delivered to mouse urine after 3 hours (escape from renal reabsorption)” value of the first is lower: 0.11% for the first, 2.9% for the second.

Compared with B11, B12 is higher in “% of i.p. injected NGAL-enterochelin-55Fe3+ complex delivered to mouse urine after 3 hours (escape from renal reabsorption)” value: 6.9% for the first, 19.6% for the second.

Going from B13 to B14, the “% of i.p. injected NGAL-enterochelin-55Fe3+ complex delivered to mouse urine after 3 hours (escape from renal reabsorption)” value falls from 0.27% to 0.05%.
